In the supplement of paper PMC11502859:

Tested on: HEK293T
Test: median enrichment of reporter reads in eGFP-reduced (low/intermediate) vs eGFP-high sorted cells (eGFP-extension fusion abundance) (ratio); higher = stronger loss of eGFP-fusion protein abundance (more destabilising extension)
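Further: lentiviral eGFP-IRES-mCherry reporter pool sorted by FACS 96 h post-transduction, gated on mCherry-high cells, Illumina read counts normalized per million, median across four biological replicates.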

Substance | median enrichment
KGPPLLILPTPPPRFSHWPGLGCPYRRSVCSPTVRRGHTLQNTAQNSKKSLHAK [IFI35] | 11.2
CRDLAERWRSHQGPRDNYQEQKPLPVPH [IGSF22] | 3.87
QALSIPM [IDH3B] | 0.815
WPDLSERHGYHRMKVEL [CUTC] | 12
CDPPRPPEWPPPHHSTMGLDARVIVVQNRRENRPATHKGQG [TMEM151A] | 4.51
CDQLSCTNFEV [IFNGR1] | 0.207
YEGPSRRATQATVPVPAFPTPAVAPPHPLPLFVPFDERLFTGVGWRDGLEGAQSIRLQGPSWEK | 2.44
CGLGWAGARRAAGWPLGGQDGTVGTEVGGRGPSGLN [TNFRSF8] | 5.21
CSDGGWSLSESSALPSPGDEGNSLCFAEKILWINTEAPATPEGWRLLSLPILQSGSKPSKTAPEHCFSWVQS [C3orf52] | 13.3
RGPPGLWGERM [CHRNB4] | 1.36
STARIKNMFPCLSDTSLLDEARKIYMKILKIHIADFMEWTSCISTEKQQHNNTKILGTLK [CDKN1B] | 38.1
LSPLRNIINCRL [DKK2] | 8.81
SDSESN [MCM6] | 0.12
QGPPNLIAGHSQPSESESRFLLSLPSSPLETQLLSQVRQWAGSCFISLSLSIPLCLVSLPLVSAWQPPPPTYHPSPITQVNVT [PGLYRP4] | 3.73
LPVGVAGSSLQIWPARCLAGWTG [DOLPP1] | 8.63
YNWKLSTHRKRSLLGRWPPQCLEKNLWASTAAREELLQARGRKGENTNSLVVSGVGG [S1PR1] | 5.24
YKRFNFQ [IGSF6] | 1.72
LINARSHPMIILNYSHYF [LRRIQ3] | 6.8
WASSPPAHVMKQRFGLVAHCLWPPSPAQPQASQPQTLESPTTMERWAVAMVDGLPGWAFELALGTTRLSLSSHGTQKCAAMLP [ADGRG1] | 5.77
SMFESHASLWKQYAM [STAT5A] | 0.883
LSYQTTY [USP51] | 1.11

Substance | median enrichment
SWPPASASSYLLPGSPPRRPPYRERGFTR [OGG1] | 6.11
KICQDKGSEDWTCSDIGVLLPSS [MAPK1] | 2.3
SHH [SPRY2] | 0.73
SLRSLRAGPSAAGSCLNTSLDMARTHRDTGQDQPCLWRQDTTIWPMAVTSCRVQSQTGNHHLRQDLPASFTFLISRALPPILC [SLC22A13] | 8.01
CSSVYELPFHSAFRNYILAFIFNLPTYFK [ATM] | 8.5
WGPGSLHASALAPAGSKHRACPPHPEDLRAMPVPPHAGGCLGHLPAH [RHPN1] | 3.51
REAGLPVLLPQGPLWLFTNKDPFVK [BCL7C] | 6.88
YNMTYSYSSLLSPLYSFFFNIFMTFKSLLYSLARKCTFFLLV [ADAMTS12] | 4.84
KGN [CYTL1] | 0.283
YWCGK [NME7] | 2.52
RKSNASRLSEA [VHLL] | 0.269
WECRSAGRREE [CNPY1] | 7.46
RYQKKK [STARD6] | 0.951
PPTTPHQATPAASAFLGAERQPRPPVPSPPSHHRSSAPGRTVWPLPVPAMGSGWTPWAPPIAKPGRQLSLVPASGQPRVSPAS [CAPN1] | 6.04
SETAGFLLLFFLVVQLSPPPLLSCLLIWSFSLFSACHVFSGTYLHPPQHQFP [CNTNAP5] | 11.4
YPTVGPGWAGRSWCVTGCPGRHVLALTVPGLSLPAAAIQEIVATVTLTSSAWFLPLPSGVDKGPLIIFSFVFL [DVL2] | 7.88
SWTGLFLTSDLSQCLFCPGSDFPVVLPPFRIKGLIVYPEFTSFGVYI [COBL] | 13
WGSVQGLSH [CST5] | 0.711
QAR [MMP10] | 0.457
RCPGDVTDSWQSHGPRLPKSVCWQLFP [S100P] | 8.26
RAPVWMLLPRLQTTGSFPCPNPRRSFLEGSWALGTCVSCAYHRPRPPWISWIGVGE [TXNRD1] | 10.1

Substance | median enrichment
YTAQGSPTQAPTLLLLALLPASVQRTGRYWWEALCLAPQLPVWASKHNGPSRSLVETGVVVPNLPSALPLHRTQRPQALQGVL [AMIGO3] | 8.02
WSPMPAHL [CDNF] | 9.59
YINKIRRGSETEKEKAKDWFVCLISFC [NR2F2] | 9.01
YEYA [BOD1L2] | 0.662
GMSVVSCLQTPSPAQFI [SAMHD1] | 1.45
WFFCFNKQQ [TMEM31] | 6.9
LQPIYLFISLWGLTH [GUCY1A1] | 15.3
QLGAHIKCFILHTWTLKPGCACILKQQSSHSFRQMFSVSEENMFSEEKTFRQMFSEEKKGKLGVGRC [PRAME] | 9.08
KRGCGSQGGLQGTGMSGGHQAQRKRKQREFTGPPEKSQSDVCRHLPIPASLARALLGPEQRRTCPTHTAIYSSRHRAPLPYSW [CRHR2] | 4.02
CAAQTEAQAQGRNLEQGHFGHSRTGERQLYFSLGQLQRVGQALMGSDCQSDAVGPRQRKAGRRGARTFSPHCPFPFSGEHRRL [C16orf58] | 4.54
SAQQSHHPASQAGGRSWGRGLSPVRLLLVKGQGPGQASSSVQVILASVVGGRESKTCSAVSSSGD [PIK3C2B] | 2.95
QPPAILPHPPPSPPVSTWSALPHPPPTELGCITFFHLKERSRF [MROH5] | 4.47
RYGWYSLHI [WASHC4] | 8.03
YILLKVF [LY75] | 4.38
KKKKKKRRKKLL [CCNT1] | 0.26
WPTSRIYSSWKLPNGEDSTKY [KRTAP24-1] | 3.66
GLLPVDEVSFL [ABCC5] | 0.739
YYCTELP [ADAM18] | 4.78
KTIQKRNQFFPQSIQCLEY [HEATR3] | 5.13
EQPGTAFSFPAEYC [RBM34] | 0.275
LRVAFFLL [GTF2A1] | 6.78

Substance | median enrichment
LNI [WDR78] | 0.527
RIFTHIYLVSIG [FAM129C] | 28.5
SKQVTDLF [FOXN3] | 0.53
LAWDTEGPVRSIYCNSNCNLVLRRRESMFGQQNFSLSLKFTASISFPY [NUPR2] | 7.51
SGPPFGHHQVPKVPQEASTLHARPASISLSFPVWPSFEGHVRWRSQARQTLTRGLSSKRALGWTTENISSRGSYNKNTYLPAL [PLPP7] | 3.53
SFTHHMDSIYKSQ [EDNRB] | 1.08
SMLIP [ZMYND15] | 0.546
SVSGNHEGIWQ [MOAP1] | 0.522
RKTWPENPQVLQRKTELGKGESWKDGAD [ABHD15] | 1.61
YLCISRAHTYIVAYSQHGSRPALLI [RANBP9] | 2.61
WFSPVICSINGLIINVSLRHDKHFNTQ [DNAAF1] | 13.3
GWLPRPGRLLDILFWLNIVLWMVPQSGARILPRRKATNGSGNYIKPETLQQGENCAPGCLAQASLEPSKHFCPS [MAB21L3] | 7.37
SAPPAACPACPACLSRHTGFRTC [DIS3L2] | 16.6
DDDDDDDDD [Asp09] | 0.213
WLQPAKSILLFHFFHDGAV [CTSK] | 8.37
YFFHKIC [CCDC102B] | 10.6
LAGAAGVPPAPGPWVSAARPPPVPAVLSVHWGPSVVPFVENLLHKALLNCLELGTSIPMETSPVWGTWRICQRLSDMGPWQFY [NYNRIN] | 6.95
SRATGPQQCEGSLAAHPAAGAQPLPGMRLSADGETATQSFGLCVCVCVCVCVCAHPRVPVCVRILPPGAEVPWVSPLLCNGLL [FGFR3] | 6.49
NNNNNN [Asn06] | 0.37
WWWW [Trp04] | 7.39
